Laboratory results reported in paper PMC9232636, “Insights into the mechanism of action of the arbitrium communication system in SPbeta phages” (Nature Communications, 2022).
Like-named read-outs stand apart in the source and are kept apart here.

Key:
[1] = target: AimR from Katmira phage (AimR^Kat) (Katmira phage (resident phage of Bacillus subtilis subsp. KATMIRA1933)); test: thermal shift assay (ThermoFluor); 20 μM protein, 5× Sypro Orange, 0.5 μM peptide as printed; 20 mM Tris pH 8, 250 mM NaCl; 25 to 85 °C
[2] = target: AimR from Katmira phage (AimR^Kat) (Katmira phage (resident phage of Bacillus subtilis subsp. KATMIRA1933)); test: ITC; Nano ITC Low Volume; protein 10 μM, peptide 50 μM; 25 mM Tris-HCl pH 8, 250 mM NaCl; 25 °C; biphasic thermograms fitted to a two-binding site model, one site per monomer of the AimR dimer
[3] = target: AimR^Kat-N273A (Katmira phage (resident phage of Bacillus subtilis subsp. KATMIRA1933)); test: as above
[4] = target: AimR from Katmira phage (AimR^Kat) (Katmira phage (resident phage of Bacillus subtilis subsp. KATMIRA1933)); test: SEC-MALS; apo AimR^Kat, 50 μl at 5 mg/ml on KW-803 (Shodex); 25 mM Tris pH 8, 250 mM NaCl
[5] = target: AimR from Katmira phage (AimR^Kat) (Katmira phage (resident phage of Bacillus subtilis subsp. KATMIRA1933)); test: SEC-MALS; AimR^Kat with 1 mM AimP^Kat peptide in the injected sample and 1 μM peptide in the running buffer; 5 mg/ml, KW-803 (Shodex); 25 mM Tris pH 8, 250 mM NaCl
[6] = target: AimRKat (Bacillus phage Katmira (prophage of Bacillus subtilis KATMIRA1933)) (UniProt A0A7G5CHT1); test: BLI; conditions: BLI: PBS (0.01% Tween, 0.1% BSA for hydration, baseline and dissociation), AimR 0.015-2.5 uM, temperature not stated; EMSA: 50 mM Tris pH 8, 250 mM NaCl, room …
aimX-box^Kat = test: Biolayer interferometry, AimR binding to aimX operator; set-up: species or system Katmira phage; conditions: BLI, 1:1 model
Procedure: (§1) The Binding affinity (KD), association (kon) and dissociation (koff) rate constants between AimRs and DNA were measured by biolayer interferometry (BLI) using the BLITz system (FortéBio). Biotinilated DNA probes (IDT) (Supplementary Table 3) were immobilised in Streptavidin biosensors (FortéBio) at 50 μg ml^−1. Biosensor hydration, baselines and dissociation analysis were carried out in phosphate buffer (PBS) supplemented with 0.01% tween and 0.1% BSA. Proteins were diluted in PBS. At least four different dilutions of AimR were used in a range between 0.015 and 2.5 μM. A blank using a chip without bounded DNA was used to subtract unspecific binding. Kinetic value calculations and data analysis were performed using BLItz Pro 1.2 software employing a 1:1 model to fit the data.

aimX-box^SPβ = test: as above; set-up: species or system phage SPβ; conditions: BLI
Procedure: as §1

aimX-box^Phi = test: as above; set-up: species or system phage phi3T; key to kon / koff: NBD: not binding detected in the experimental conditions used. KD > 1 × 10^−6 M; conditions: BLI, 1:1 model
Procedure: as §1

AimR^SPβ = test: Thermal shift assay of AimR^SPβ with and without C-terminal His-tag; type: physicochemical, phage SPβ
Procedure: The thermal shift assay was conducted in a 7500 Fast Real time PCR System (Applied Biosystems) as previously described. Briefly, samples of 20 μl buffer (20 mM Tris pH 8 and 250 mM NaCl) containing 5× Sypro Orange (Sigma-Aldrich) and 20 μM of protein were loaded in 96-well PCR plates. To calculate the Tm in the presence of the peptide, 0.5 μM of GMPRGA or GIVRGA peptide was added to the mixture. Samples were heated from 25 to 85 °C in steps of one degree. Fluorescent intensity was plotted versus temperature and integrated with GraphPad Prism software using a Boltzmann model to calculate melting temperatures.

[7] = target: T1, AimRSPb-II (C-terminal His tag) (Bacillus phage SPbeta (B. subtilis 168 …, UniProt O64094 1-386)); test: BLI; BLI: PBS (0.01% Tween, 0.1% BSA for hydration, baseline and dissociation), AimR 0.015-2.5 uM, temperature not stated; EMSA: 50 mM Tris pH 8, 250 mM NaCl, room temperature 10 min, 0.5 uM peptide, gel at 4 C; conditions: protein: recombinant; chain copies: 2
T1 sequence: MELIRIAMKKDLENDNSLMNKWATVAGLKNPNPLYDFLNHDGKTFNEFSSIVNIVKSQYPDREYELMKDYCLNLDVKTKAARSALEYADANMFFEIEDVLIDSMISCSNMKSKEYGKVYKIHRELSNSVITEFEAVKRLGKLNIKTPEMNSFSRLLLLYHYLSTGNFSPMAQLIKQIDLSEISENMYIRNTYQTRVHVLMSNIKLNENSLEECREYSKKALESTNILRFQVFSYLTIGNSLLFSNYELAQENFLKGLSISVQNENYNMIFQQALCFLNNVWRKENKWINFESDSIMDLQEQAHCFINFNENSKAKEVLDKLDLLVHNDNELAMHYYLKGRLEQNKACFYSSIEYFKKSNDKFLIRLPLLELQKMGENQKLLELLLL

AimRSPb-I (untagged) [8] = target: T2, AimRSPb-I (untagged) (Bacillus phage SPbeta, UniProt O64094 1-386); test: as above; conditions: protein: recombinant; tags: N-terminal His tag removed; chain copies: 2
T2 sequence: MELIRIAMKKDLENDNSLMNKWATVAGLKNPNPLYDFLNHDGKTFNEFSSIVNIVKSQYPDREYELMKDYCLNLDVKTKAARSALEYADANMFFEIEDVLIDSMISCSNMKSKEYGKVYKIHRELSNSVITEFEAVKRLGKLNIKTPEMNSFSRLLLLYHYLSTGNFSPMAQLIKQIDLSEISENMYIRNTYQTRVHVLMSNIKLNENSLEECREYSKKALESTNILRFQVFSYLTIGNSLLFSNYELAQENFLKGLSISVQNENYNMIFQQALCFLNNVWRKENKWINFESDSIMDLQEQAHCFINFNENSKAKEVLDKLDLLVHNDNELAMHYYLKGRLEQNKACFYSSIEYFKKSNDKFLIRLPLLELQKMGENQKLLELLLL

AimRSPb-I (untagged) [9] = target: T2, AimRSPb-I (untagged); test: EMSA; BLI: PBS (0.01% Tween, 0.1% BSA for hydration, baseline and dissociation), AimR 0.015-2.5 uM, temperature not stated; EMSA: 50 mM Tris pH 8, 250 mM NaCl, room temperature 10 min, 0.5 uM peptide, gel at 4 C; conditions: protein: recombinant; tags: N-terminal His tag removed; chain copies: 2
[10] = target: T3, AimR from B. subtilis phage SPβ (AimR^SPβ) (Bacillus subtilis phage SPβ) (UniProt O64094)
T3 sequence: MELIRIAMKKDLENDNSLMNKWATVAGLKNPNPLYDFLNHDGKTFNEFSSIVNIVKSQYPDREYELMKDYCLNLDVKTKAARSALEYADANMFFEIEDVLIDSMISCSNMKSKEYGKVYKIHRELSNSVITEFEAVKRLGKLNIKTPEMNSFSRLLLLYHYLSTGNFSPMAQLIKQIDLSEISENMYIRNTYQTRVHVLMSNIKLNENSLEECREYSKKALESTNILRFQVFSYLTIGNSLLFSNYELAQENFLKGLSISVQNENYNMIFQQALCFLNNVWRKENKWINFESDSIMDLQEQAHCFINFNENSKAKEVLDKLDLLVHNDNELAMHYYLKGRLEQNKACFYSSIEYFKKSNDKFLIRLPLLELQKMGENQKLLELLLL

[11] = target: AimR^Kat-N273A (Katmira phage (resident phage of Bacillus subtilis subsp. KATMIRA1933)); test: ITC; Nano ITC Low Volume; protein 10 μM, peptide 50 μM; 25 mM Tris-HCl pH 8, 250 mM NaCl; 25 °C; biphasic thermograms fitted to a two-binding site model, one site per monomer of the AimR dimer; remark: listed apart in the source

## AimP^Kat, active (mature) Katmira AimP peptide GIVRGA
[1]
  increment of the melting temperature (Tm): 20 °C
[2]
  KD1 (monomer 1, two-binding site model): 4.1 nM
  KD2 (monomer 2, two-binding site model): 5.7 nM
[3]
  KD1 (monomer 1, two-binding site model): 194 nM
  KD2 (monomer 2, two-binding site model): 356 nM

## AimR from Katmira phage (AimR^Kat) (receptor)
[4]
  stoichiometry N: 2
[5]
  stoichiometry N: 2

## GGGAAAGTTCCAGAAATTCAAAAATCAAAAAATAAGAACATGGGG (double strand) [aimX-boxPhi BLI probe (DNA_Phi3T_b)]
[6]
  Kd: > 1000 nM

## GTTGATCACTTAAATATTAAGTTTTTATAACATCTAGTGATGGCC (double strand) [aimX-boxKat BLI probe (DNA_Kat_b)]
[6]
  Kd: 23.1 nM

## GTTGATCACTTAAATATTAGGTTTTAATAACATCTAGTGATGGCC (double strand) [aimX-boxSPb BLI probe (DNA_SPb_b)]
[6]
  Kd: 21.4 nM

B1: AimR^SPβ-I: AimR^SPβ receptor without tags (protein)
chain: MELIRIAMKKDLENDNSLMNKWATVAGLKNPNPLYDFLNHDGKTFNEFSSIVNIVKSQYPDREYELMKDYCLNLDVKTKAARSALEYADANMFFEIEDVLIDSMISCSNMKSKEYGKVYKIHRELSNSVITEFEAVKRLGKLNIKTPEMNSFSRLLLLYHYLSTGNFSPMAQLIKQIDLSEISENMYIRNTYQTRVHVLMSNIKLNENSLEECREYSKKALESTNILRFQVFSYLTIGNSLLFSNYELAQENFLKGLSISVQNENYNMIFQQALCFLNNVWRKENKWINFESDSIMDLQEQAHCFINFNENSKAKEVLDKLDLLVHNDNELAMHYYLKGRLEQNKACFYSSIEYFKKSNDKFLIRLPLLELQKMGENQKLLELLLL
aimX-box^Kat; BLITz, streptavidin biosensor with biotinylated DNA, PBS, mean of five measurements
  Kd: 19.6 nM
aimX-box^Kat; PBS + 0.01% tween and 0.1% BSA
  koff: 0.078 ± 0.0025 s⁻¹
aimX-box^Kat; PBS
  kon: 3.98e+06 ± 427000 M⁻¹ s⁻¹
aimX-box^SPβ; BLITz, streptavidin biosensor with biotinylated DNA, PBS, 1:1 model, mean of five measurements, read-out: KD
  Kd: 19.3 nM
aimX-box^SPβ; PBS + 0.01% tween and 0.1% BSA, 1:1 model
  koff: 0.0726 ± 0.00229 s⁻¹
aimX-box^SPβ; PBS, 1:1 model
  kon: 3.75e+06 ± 324000 M⁻¹ s⁻¹
aimX-box^SPβ; peer review file, stated jointly for aimX-box^SPβ and aimX-box^Kat, read-out: affinity (KD)
  Kd: 19 nM
aimX-box^Phi; BLITz, PBS, AimR 0.015-2.5 μM
  Kd: > 1000 nM
aimX-box^Phi; PBS + 0.01% tween and 0.1% BSA
  koff: NBD^d
aimX-box^Phi; PBS
  kon: NBD^d
AimR^SPβ; 20 mM Tris pH 8, 250 mM NaCl, 20 μM protein, no peptide
  Tm: 53.6 °C
AimR^SPβ; Supplementary Fig. 5b, in °C (unit assumed)
  Tm: 53.6 ± 0.7

B2: aimX-boxSPb BLI probe (DNA_SPb_b) (dsDNA)
DNA 1: GTTGATCACTTAAATATTAGGTTTTAATAACATCTAGTGATGGCC
DNA 2: GGCCATCACTAGATGTTATTAAAACCTAATATTTAAGTGATCAAC
[7]
  Kd: 116 nM
AimRSPb-I (untagged) [8]
  Kd: 19.3 nM

B3: aimX-boxKat BLI probe (DNA_Kat_b) (dsDNA)
DNA 1: GTTGATCACTTAAATATTAAGTTTTTATAACATCTAGTGATGGCC
DNA 2: GGCCATCACTAGATGTTATAAAAACTTAATATTTAAGTGATCAAC
[7]
  Kd: 116 nM
AimRSPb-I (untagged) [8]
  Kd: 19.6 nM

B4: aimX-boxPhi EMSA probe (DNA_Phi3T) (dsDNA)
DNA 1: GTTGATGTTCCAGAAATTCAAAAATCAAAAAATAAGAACATGGCC
DNA 2: GGCCATGTTCTTATTTTTTGATTTTTGAATTTCTGGAACATCAAC
AimRSPb-I (untagged) [9]
  binding result: no binding

## GMPRGA [AimP^SPβ, the SPβ AimP peptide GMPRGA]
[10]
  phage titre (PFU/ml) after mitomycin C induction of the SPβ ΔaimR prophage complemented with AimR^SPβ, 5 μM peptide added (times (reduction of the titre)): 10
[11]
  KD1 (monomer 1, two-binding site model): 1.3 µM
  KD2 (monomer 2, two-binding site model): 1.6 µM
